In US20040170644A1:
No end group written: not given here.

T1: HLA-DR4 molecule (DRB1*0401) (human)
T1 chain 1: not shown
T1 chain 2: not shown

T2: HLA-DR1 molecule (DRB1*0101) (human)
T2 chain 1: not shown
T2 chain 2: not shown

T3: HLA-DR3 molecule (DRB1*0301) (human)
T3 chain 1: not shown
T3 chain 2: not shown

T4: HLA-DR15 molecule (DRB1*1501) (human)
T4 chain 1: not shown
T4 chain 2: not shown

T5: HLA-DRB3*0101 molecule (human)
T5 chain 1: not shown
T5 chain 2: not shown

T6: HLA-DR7 molecule (DRB1*0701) (human)
T6 chain 1: not shown
T6 chain 2: not shown

T7: HLA-DR13 molecule (DRB1*1301) (human)
T7 chain 1: not shown
T7 chain 2: not shown

T8: HLA-DR11 molecule (DRB1*1101) (human)
T8 chain 1: not shown
T8 chain 2: not shown

T9: HLA-DRB5*0101 molecule (human)
T9 chain 1: not shown
T9 chain 2: not shown

T10: HLA-DRB4*0101 molecule (human)
T10 chain 1: not shown
T10 chain 2: not shown


Experiments:
[1] = biological target: T1, HLA-DR4 molecule (DRB1*0401) (human); experiment: competition ELISA vs biotin-HA 306-318
[2] = biological target: T2, HLA-DR1 molecule (DRB1*0101) (human); experiment: competition ELISA vs biotin-HA 306-318
[3] = biological target: T3, HLA-DR3 molecule (DRB1*0301) (human); experiment: competition ELISA vs biotin-MT 2-16
[4] = biological target: T4, HLA-DR15 molecule (DRB1*1501) (human); experiment: competition ELISA vs biotin-A3 152-166
[5] = biological target: T5, HLA-DRB3*0101 molecule (human); experiment: competition ELISA vs biotin-Lol 191-210
[6] = biological target: T6, HLA-DR7 molecule (DRB1*0701) (human); experiment: competition ELISA vs biotin-YKL
[7] = biological target: T7, HLA-DR13 molecule (DRB1*1301) (human); experiment: competition ELISA vs biotin-B1 21-36
[8] = biological target: T8, HLA-DR11 molecule (DRB1*1101) (human); experiment: competition ELISA vs biotin-HA 306-318
[9] = biological target: T9, HLA-DRB5*0101 molecule (human); experiment: competition ELISA vs biotin-HA 306-318
[10] = biological target: T10, HLA-DRB4*0101 molecule (human); experiment: competition ELISA vs biotin-E2/E168

Binder	IC50 [1] [nM]	IC50 [2] [nM]	IC50 [3] [nM]	IC50 [4] [nM]	IC50 [5] [nM]	IC50 [6] [nM]	IC50 [7] [nM]	IC50 [8] [nM]	IC50 [9] [nM]	IC50 [10] [nM]
LRLCVQSTHVDIRTLEDLLMGTL (modifications not checked) [E7(65-87)]	650	650	450	470	850	900	–	–	–	–
DLYCYEQLNDSSEEEDEIDG (modifications not checked) [E7(21-40)]	1750	–	4600	5300	–	–	–	–	–	–
TERVRLVTRHIYNREE (not fully specified) [B1 21-36 (nonbiotinylated)]	–	–	–	–	–	–	330	–	–	–
RDLCIVYRDGNPYAV (modifications not checked) [E6 55-69]	–	1500	–	55	–	–	–	250	–	–
KCDSTLRLCVQSTHV (modifications not checked) [E7(60-74)]	–	5000	–	–	–	900	–	7000	200	–
ERPRKLPQLCTELQTTIHDII (modifications not checked) [E6(14-34)]	–	3500	550	800	1450	225	–	–	–	–
LRLCVQSTHVDIRTL (modifications not checked) [E7 65-79]	–	750	–	–	–	600	–	–	–	–
TTLEQQYNKPLCDLL (modifications not checked) [E6 93-107]	–	–	–	18	–	7750	–	–	325	–
QQYNKPLCDLLIRCI (modifications not checked) [E6 97-111]	325	575	1230	4000	–	–	–	–	5500	–
QQLLRREVYDFAFRD (modifications not checked) [E6 42-56]	–	–	–	3250	–	–	375	6000	–	55
SEYRHYCYSLYGTTL (modifications not checked) [E6 81-95]	–	10	–	–	–	–	–	725	2500	–
MHQKRTAMFQDPQERPRKLPQL (modifications not checked) [E6(1-22)]	–	–	3500	–	–	–	–	–	–	–
RHYCYSLYGTTLEQQ (modifications not checked) [E6 84-98]	–	–	–	–	–	3250	–	7000	900	–
TLHEYMLDLQPETTDLYCYEQ (modifications not checked) [E7(7-27)]	60	–	560	1770	8.5	–	7500	600	–	375
LRREVYDFAFRDLCIVYRDGNPY (modifications not checked) [E6(45-67)]	–	–	–	225	2500	2330	–	125	65	–
DLLIRCINCQKPLCPEEKQRHL (modifications not checked) [E6(105-126)]	3750	1750	–	4000	–	–	5000	5000	30	–
LDLQPETTDLYCYEQ (modifications not checked) [E7 13-27]	4250	4000	3500	–	–	–	–	3500	–	–
MGTLGIVCPICSQKP (modifications not checked) [E7 84-98]	–	–	–	425	–	1250	–	–	90	1750
EKQRHLDKKQRFHNIRGRWT (modifications not checked) [E6(121-140)]	–	125	–	–	–	200	1130	350	85	–
RTLEDLLMGTLGIVC (modifications not checked) [E7 77-91]	–	–	–	–	–	55	–	–	700	–
MHGDTPTLHEYMLDLQPETT (modifications not checked) [E7(1-20)]	–	2500	–	125	35	–	–	1750	–	4
TELQTTIHDIILECV (modifications not checked) [E6 24-38]	–	425	–	950	–	1500	–	–	–	–
LCVQSTHVDIRTLED (modifications not checked) [E7 67-81]	7500	7000	–	950	–	1500	–	–	–	–
HLDKKQRFHNIRGR (modifications not checked) [E6 124-138]	–	10	–	–	–	–	–	475	75	–
SLYGTTLEQQYNKPL (modifications not checked) [E6 89-103]	5000	125	–	53	–	1500	–	–	200	–
QRFHNIRGRWTGRCM (modifications not checked) [E6 130-144]	–	4	–	–	–	950	–	115	75	–
PTLHEYMLDLQPETT (modifications not checked) [E7 6-20]	175	750	–	675	90	–	–	1500	–	200
FYSKISEYRHYCYSL (modifications not checked) [E6 76-90]	–	125	–	–	–	–	225	–	1050	–
